The values below come from article PMC9001643 (Scientific Reports, 2022).

The data set deals with the molecule itself. Nature of the data set: crystal structure; His6-dmJMJD7.Mn(II).ligand complexes (2OG, succinate, N-oxalylglycine, 2,4-PDCA, N-oxalyl-D-alanine, N-oxalyl-D-phenylalanine); sitting drops at 25 °C, 0.1 M Bis-Tris pH 5.4, 0.3 M magnesium chloride, 18-23% PEG 3350; two molecules per asymmetric unit, space group P2_(1).

B1: Drosophila melanogaster Jumonji domain-containing 7 (His6-dmJMJD7) (enzyme, UniProt Q9VU77 1-316, looked up)
chain: MSEVERALDVLLQEAEELCIGSSVVELDRIPTALEFCREFYSKNQPVVIRKALNWPAIGKWTPKYLIEALGDRSVDVAITPNGYADGLATQNGQEYFVLPLETKMKLSEVVRRLDDPTGAVHYIQKQNSNLSVDLPELAADLRVSDLDFAQQSFNKPPDAVNFWLGDERAVTSMHKDPYENVYCVISGHKDFVLIPPHQLSCVPRGIYPTGVYKTSDSGQFYIEPLRDEEGSDQFTEWVSVDPLSPDLAKYPEYARAKPLKVRVHAGDILYLPNYWFHHVSQSHKCIAVNFWYDLDYDSRYCYYRMLEQMTSARSG
notes: JMJD7 of Drosophila melanogaster, full length, aa 1-316, UniProt Q9VU77, cloned into pET28a; Homodimer in the crystals; the two monomers are covalently linked by a disulfide bond Cys37-Cys37'; Crystallised with Mn(II) in place of Fe(II) and with 2OG, succinate or a 2OG analogue; also called JMJD7_DROME; not shown: His6, N-terminal, kept
In the case of B1, the “stoichiometry N” value came out at 2.
